How the values were obtained:
[1] = target: separase [also known as separin (ESPL1)], endogenous [human (endogenous in HCT116)]; experiment: proximity ligation assay (PLA); conditions: HCT116 cells stably expressing GFP–Centrin2; antibodies against HA and separase; parent: 44; read off a plot
[2] = target: 14-3-3ε (endogenous) [human (endogenous in HCT116)]; experiment: proximity ligation assay (PLA); conditions: HCT116 cells stably expressing GFP–Centrin2; antibodies to the Myc epitope tag and 14-3-3ε; parent: 52; read off a plot

Substance	response (puncta per cell) [1]	response (puncta per cell) [2]
HA-tagged 14-3-3ε WT mutant D127A [not stated] / separase [also known as separin (ESPL1)], endogenous [human (endogenous in HCT116)] chain 1 D127A	63	–
Myc-tagged separase (FL) mutant S1501A [human] / 14-3-3ε (endogenous) [human (endogenous in HCT116)] chain 1 S1501A	–	0.5
Myc-tagged separase (FL) mutant T1363A [human] / 14-3-3ε (endogenous) [human (endogenous in HCT116)] chain 1 T1363A	–	45

The next lines start with the values.

response (puncta per cell) [1]	response (puncta per cell) [2]	Substance
19	–	HA-tagged 14-3-3ε WT mutant D127A; E134A [not stated] / separase [also known as separin (ESPL1)], endogenous [human (endogenous in HCT116)] chain 1 D127A, chain 1 E134A
8	–	HA-tagged 14-3-3ε WT mutant E134A [not stated] / separase [also known as separin (ESPL1)], endogenous [human (endogenous in HCT116)] chain 1 E134A
